Experimental findings from patent US20240059770A1 are described below.

For the assay, the target named is human glucose-dependent insulinotrophic polypeptide (GIP) (human). Briefly: sandwich immunoassay (MSD ECL): C-Terminal Antibody as capture, ruthenium-labelled N-Terminal Antibody as detection.
Chain of human glucose-dependent insulinotrophic polypeptide (GIP) (human) (peptide, as listed by the source): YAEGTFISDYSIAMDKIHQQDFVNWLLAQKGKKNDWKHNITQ

B1: Anti-Human Oxyntomodulin N-Terminal Antibody (antibody, V domains shown)
VH: QIQLVQSGPELKKPGETVKISCKASGYTFTDYAFSWVKQAPGKGLKWMGWITTNTGEATYADDFKGRFAFSLETSASTAYLQISNLKNEDTATYFCARETEYGDSSWFGHWGQGTLVTVSA
VL: DIVLTQSPASLAVSLGQRATISCRASESVDGWGNSFMHWYQQKPGQPPKLLIYLATYRVAGIPARFSGSGSRTDFTLTINPVEADDVATYYCMQSSEDPYTFGGGTKLEIKR
Molecule B1 had a percent cross-reactivity (ECL against human oxyntomodulin (53-89), blank subtracted) of 0.12%.
